Consider five substances from IntAct's records for PubMed 20389281.

Experiment [1] has as its target snai1_human SNAI1 (UniProt O95863).
Experiment [2] has the same target. This is another data set of the same source.

Sequence of snai1_human SNAI1 (O95863 whole entry): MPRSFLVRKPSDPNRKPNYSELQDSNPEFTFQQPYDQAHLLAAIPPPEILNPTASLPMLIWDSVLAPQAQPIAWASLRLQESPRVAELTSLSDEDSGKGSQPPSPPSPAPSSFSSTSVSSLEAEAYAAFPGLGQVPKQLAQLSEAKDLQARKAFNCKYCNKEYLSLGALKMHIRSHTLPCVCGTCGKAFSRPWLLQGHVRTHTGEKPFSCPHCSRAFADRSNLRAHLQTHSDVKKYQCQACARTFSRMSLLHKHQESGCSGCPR

Take “Lysine-specific histone demethylase 1A (Homo sapiens) (from UniProt O60341) D375A”: the “effect of a mutation on the interaction” value with snai1_human SNAI1 [1] was “disrupting interaction”.

Turning to “Lysine-specific histone demethylase 1A (Homo sapiens) (from UniProt O60341) D553A”, the “effect of a mutation on the interaction” value with snai1_human SNAI1 [2] is recorded as “disrupting interaction”.

On to “Lysine-specific histone demethylase 1A (Homo sapiens) (from UniProt O60341) D555A”, for which, in the experiment with snai1_human SNAI1 [2], the “effect of a mutation on the interaction” value is “disrupting interaction”.

As for “Lysine-specific histone demethylase 1A (Homo sapiens) (from UniProt O60341) D556A”, in the experiment with snai1_human SNAI1 [2], the “effect of a mutation on the interaction” value was “disrupting interaction”.

Turning to “Lysine-specific histone demethylase 1A (Homo sapiens) (from UniProt O60341) E379A”, the “effect of a mutation on the interaction” value with snai1_human SNAI1 [1] was “disrupting interaction”.
